Measurements from a protein production outcome set (Wang et al. 2014).

Assay: label from the status in PepcDB records

Q: For “MKRFIVGIDLGTSNTVVAYVEAGGDAIRVFDVDQLVAPGEVGARPLLPSARYHPAPGEFAPGELQLPWRDAEAGDAADAGDAPPAVIGTLARTLGAQVPGRLVTSAKSWLSHASVDRLAPILPWGAADAGGKVSPVAASASYLAHVRAAWNRRFPDAPLEQQDVVLTVPASFDDGARSLTLEAARLAKLPALRLLEEPQAAFYDWLFHHRDSLREELARTRLVLVCDVGGGTTDLTLIKVHAEDGEPQLTRIGVGDHLMLGGDNMDLALARVAEARLARDGGARLSAASLSQLVERCRAAKERLLDANPPDSVGVTLLGAGARLVGGARKTELGRAEVEQIVVDGFFPAGGPDDLPRRSRAALVEFGLPYAADAAVTRHVAAFLHRLAAQSRDALGAAGASDRALPVPDTLLLNGGVFRSRALAERVAGVLGDWRGQPLHVLRNDHPDVAVARGAVAYGLARAGRAPRIGGGSPRSYFLVVDDGAHASRGVCVLPRGTAEGHDVRLDDRVFALRLGHPVRFHLASTVADHAWRAGELADLGAGGFVRLPPVATVVRRQDAGGASERLVKLTTSLTEVGTLDMRCIATDDSSQRWQLEFQLRREPAGGGDAADASRHPSLDEAIELIDRSFGARLANVDPKEVRRLRGQLEQLLGARDAWDIALLRELFGALWARAGRRRRSADHERVWLNLAGYCVRPGFGHPLDDWRVAQLWTLFDDGIQYVNDAQVWSEWWTLWRRAAGGLDDDAQREALDAMAWLQEAARAKRPKLPFDAAKIGDMDIVRLSASLERVPVERKIALGEDLLARLRRPAENHQCWWAIGRIGARRPLYGSAHGVVPPDVAGRWLDAILAVDWKKVEPAAFAAAQIARMTGDRSSDVAADVRERVVRRLAAMNASDAWVRMVSEVVALDSADTGRAFGESLPAGLKLVAD”, which protein production is on record?
A: The protein production was “failed”.

Q: For “MKRFIVRAVLILVSFVLLIQLWIFCSLAWWRTHPVETTMFMRLDYWSDSSKPIQQQWRDYDEISDNFKKAVVAAEDGKFVHHHGFDWEGIQYALEKNEKSGEVVNGGSTISQQLAKNLFLYNQRSLIRKGQEAIATWMMERMWSKQRILEVYMNSVQFGDHLYGVEAASHYYFHRSAQNLTRDQAAFLAALLPNPKYYQENRNDPRFKFKKRFTLKYMRYSEIP”, which protein production is on record?
A: Its protein production is “failed”.

Q: For “MKRFNVLKYIRTTKANIQTIAMPLTTKPLSLKINAALFDVDGTIIISQPAIAAFWRDFGKDKPYFDAEHVIHISHGWRTYDAIAKFAPDFADEEYVNKLEGEIPEKYGEHSIEVPGAVKLCNALNALPKEKWAVATSGTRDMAKKWFDILKIKRPEYFITANDVKQGKPHPEPYLKGRNGLGFPINEQDPSKSKVVVFEDAPAGIAAGKAAGCKIVGIATTFDLDFLKEKGCDIIVKNHESIRVGEYNAETDEVELIFDDYLYAKDDLLKW”, which protein production is on record?
A: The protein production was “not failed”.

Q: Which protein production does the source give for “MKRGRRASPAAGQHFKVLACEPCVSRRGIYTTLSLQLQKRALQGLQGGAGRRDLSLDRKGFHGLFLRCPFAALRCCQLRLLLGELLLSIFNLLLYFLDRIIEGRLARTANAATTTCCTSLAAFGGSLIRAFLCLSGGRRSSSRLGCFGVGRLDRDRQRAGVAVQCRSIDGSHDGLLGF” here?
A: The protein production was “failed”.

Q: Which protein production does the source give for “MKRKKIKNQLLVLTSILVLLSLEVAPVVTLAAELPSSSLQTALSSETTITSEEKVTETTETTVATSTTSTSSSSSESSSSTDTTTESTSQSTTETTTTNTSSETKKEPTEPTVSSEITQPVEQSQPPQVPVTKQEPEEPIQVPEANNNFVEENQAVSLNPSLKVDEIASSNLKGYELPLLSSFGEKKRAVVVAEALRHVGKTKKEFNLTEQALTSSFLAQKIYQQLFKIDIGSTPQEQMTFGKVRSIEEAEPGDLIFWQTAEGKTLQNGVYLGQGKYLIAAAESDSKEKPEVIAQLENIYTAKQQPDSKEEKRLVVTNPFKEFILTEYGKEVLATYGASFEMQKSEQTTAFIKKIGETARELGEKYDVFASVMIAQAILESGSGESQLAKEPYYNLFGVKGSFQGNSVSFSTKEADQRGQLYTISAGFRDYGGYNDSLQDYVQLLRQGIDGNQDFYKPAWRSEAKNYLQATRFLTGKYATDKQYDNKLNSLIAVYNLTQFDLPKTVDGLIIQSKNKLSEAEQQQMHFPVYDGINYNRSGSYPVGQCTWYVYNRFKQLGTSVDEFMGNGSDWGRKGRALGYQVSSLPKAGRAISFQPGVAGADNQYGHVAFVEAVTSDGIIISESNVINDQTISYRVLPNVIAYSSGVTYIGA” here?
A: Its protein production is “failed”.

Q: Which protein production does the source give for “MKRLPLLAALPLLCASALSAQPLMSVGYFNGGGDVTAGPGGDIDKLDVRQITHLNYSFGLIYNDEKDETNAALKDPAHLHEIWLSPKVQADLQKLPALRKQNPDLKVLLSVGGWGARGFSGAAATAESRAVFIRSAQKIIQQYGLDGIDLDWEFPVNGAWGLVASQPADRDNFTALLKSLREAVGEQKLVTIAVGANAESPKSWVDVKAVAPVLNYINLMTYDMAYGTQYFNSNLYDSSHWPTVAAADKYSADFVVNNYLAAGLKPSQMNLGIGFYGRVPKRAVEPGIDWTKADAQNNPVTQPYFGPQQIALFASLGYDLSKDTYVKYNDIVGKLLNDPQKRFTEHWDDEAKVPWLSVQSAEGKPLFALSYENPRSVAIKADYIKAKGLAGAMFWEYGADDQNQLARQLAESLGIKH” here?
A: The protein production was “not failed”.

Q: Which protein production does the source give for “MKRLYKAMFIVFILLVLMFASQQGLFEHVTNSNWVAHFIKAEGNYALMALLAVGALFTAVGGPRQVIAFVFGFALGGIYGGLFSTLAALLGCVLVFYTARLTIRSSLQRRFGHRLQKFEALIIHRTWLKVLMIRLLPVGSNLLTNLFAGATHISPGGFLFGSMLGYLPQMLIFSFAGAGIGLADHNQLWISIGLFIVSSLIGAYLYRSSLRKQVDELEH” here?
A: The protein production was “failed”.

Q: For “MKRMSSLEYHFGVKVRFYPSNNQKKMIKQNYDAQRFVYNQYVGAGRLIYHVKKANRIKQLSSGLPFVMQGMSEYENQQALRMIDTQDLISKPKNIRDKYDFLRVEDIDSLAIANAIQNYHKAWRNYHKIGYGIPTFHKKRSSWSYQTNCQYIKQDAAYLDNGTVRFIDAKHVKLPKLGIVRIAGLRKLIKKRLFNRIPIRIGTASIKKTADDQFYLSLQLGSDIAFVKDYAKTQKQIGIDLNLDNFLTDSNGAMVANPRFYRRAKKKLAHAQRILSRRERRAKKEGRSLCESKNYQKQRLAVAKLHDRIRRQRQDFLQVLSTALIKNHDLVVAEELRSKNLLKNHALAQSISDAGWRSFLTMLEYKADLHGKKFVTIDPKFTTQRCHNCGNIMGQNGYKKLTLKDRKWTCPVCGSYHIRDWNASVNILEKSKGIWKNPKIKKRSK”, which protein production is on record?
A: Its protein production is “failed”.

Q: Which protein production does the source give for “MKRNTRLLFVVPAFFAIFAMACACQGGTAGKSFTNSTGSPGEMMLVMDDQYLGSPVGEAIYEAMTEVAPALNQNEPIMAVSRVSEKDFTGFLRYIRNVLQIDINPDIFTKTSLKYGYDQWANGQLVVLINSPATDSLTAYVESNKSAIQNLFIRHELFLFGQLWQKDCSADADQRVQRMFGYHINVPADILSHKEGKDFLWMSNNQMRRRKDFLVYTFPYRGASDLGLDRMVEVRDSVLKANIEGSDAGSYPVTERMLLKHRYVYPGDQKRGEVHGIWRMEGGQMMSGPFVAQAFVDGDRVVVVEGFVYHPNEKKRDLMRQMEAALYSMRPKAEKEFDPSIIRKARWTTLK” here?
A: Its protein production is “failed”.

Q: Which protein production does the source give for “MKRPGAIPTVQIDNERVKVTEWRFPPGGETGWHRHSMDYVVVPMTTGPLLLETPEGSVTSQLTRGVSYTRPEGVEHNVINPSDTEFVFVEIEIKAA” here?
A: Its protein production is “not failed”.

Q: Which protein production does the source give for “MKRRSVLLSGVALSGTALANDSIFFSPLKYLGAEQQRSIDASRSLLDNLIPPSLPQYDNLAGKLARRAVLTSKKLVYVWTENFGNVKGVPMARSVPLGELPNVDWLLKTAGVIVELIVNFVASLPASAAAQFERIATGLSGDLEAARQVHEALLEEAKNDPAAAGSLLLRFTELQTRVIAILTRVGLLVDDILKSASNLVTQRGQGDGLNRFRAVFGTLRLPEVADSFRDDEAFAYWRVAGPNPLLIRRVDALPANFPLGEEQFRRVMGADDSLLEAAASRRLYLLDYAELGKLAPSGAVDKLLTGTGFAYAPIALFALGKDRARLLPVAIQCGQDPATHPMFVRPAESESDLYWGWQMAKTVVQVAEENYHEMFVHLAQTHLVSEAFCLATQRTLAPSHPLHVLLAPHFEGTLFINEGAARILLPSAGFIDVMFAAPIQDTQATAGGNRLGFDFYRGMLPESLKARNVDDPLALPDYPYRDDGLLVWNAIRQWAADYVAVYYASDGDVTADVELAAWVGEVIGSGKVAGFRPITGRSQLVEVLTMVIFTASAQHAAVNFPQPSMMTYAPAICAMSAAPAPDSPSGKSEADWLKMMPPTLVALEKVNIYHLLGSVYHGRLGDYRQTGFPYAPVFSDRRVTASGGPLERFQARLKEVEATIRTRNQARRRPYEYLLPSRIPASTNI” here?
A: The protein production was “failed”.

Q: For “MKRSASLKEDVFLKSKVHFWTLEVLMVVAIIFICTKISFLFQPIGIFISTLFFPILIALFLYFIFNPVLVFLEEKKVPRNLAILLLYLFIITLTAVGVGVVVPTISQQLMDLVKNMPGYIKEGKLYIQDLSHHRLFEWLSTQNYVSIETIEKNAIEYLKDIPNTITSSATALFGIITNVALVIFTVPFILFYMFKDGHAFPGKAVSLLPESYREEGLRIIKETNETLSAYIQGQALVCIFVGAFTFIGYLIIDLPYAFVLGIIAAFTNIIPNLGPFIGAAPAVIVGLFVSPMQALYVIIIVTIVQQFESNIISPRIMSSKLNIHPLTIIILILGVGNFAGIIGMILAVPVYAVTKTVVSNLVRLFKTKRSNRK”, which protein production is on record?
A: Its protein production is “failed”.

Q: For “MKRSEKKSMSSALKNGIMERTQPEKVVQMQGTADLSTSKLGTKKYWDELYALELENFRRNPQDTGDCWFSDSDAEQKMIDFLVDNIGAYRISENASVVDLGTGNGHMLFELHQTEFQGKLVGIDYSEESVKLASNIAEATGVDNFISFQQADIFSGDWKPGKYDIVLDKGTLDAISLSGMKINGKLDVVDVYAGVVERILKKDGIFLITSCNFTQDELVKIIETDNLKMWKTIKYPVFQFGGVQGATICSVAFVKQN”, which protein production is on record?
A: The protein production was “failed”.

Q: For “MKRSILNTLLNVLAIIFIVFLMIKVSVPMGSILLLSFIIFKLTINKHLIYMFKGAKKLRANNLEEALSLYRKAALCNSSNVKAIKTYVFLELKIGSYTEALETLKSIVSKRKFLPEDANQLDLLQAILYWKLNDIKTSLQILDDLKANNFNSLDFYEVYGYVLIQDEDFEKAISISNEGLKVDELSQIIRANLGEIFYKIGDIKKACFYFDELIDECVNFSEPYYFMGIISKEKEDFYKAKEFLNKALKYDESILSNLSKNDIENALISINH”, which protein production is on record?
A: The protein production was “failed”.

Q: For “MKRSNTVRLVVSKEQHEVLKRLGIATAKCWNEVNWLRMKQYKEGKRVDFGITEKAVYEKYKSVLRVNAQQVARKNAEDWRSFFSLTREKKEGKLPSWFKPRPPGYWKDGRLIVIIRNDRYTVDERNRVVYLKDFNLSLKFKGRLKWHGKQGRLEIIYDEARKIWYAHIPVEVETEKVKEGIKASIDLGIVNLATVYVEDGSWYLFKGGSALSHYENYSKRITIVQKTLHRHRQRRSRRLKLLHEKRSRFLKHALNSMVRRIMEILREKNVGEVVVGYPKEIAKHHGNKLTVNFWNYSYIIKRLEDIGEELGIKVITVDEAYTSKTCSLCGEAHEDGRVKRGLFVCPRTRKAINADLNGAINILHIPESRGSEGNFHRGIGVIGLKTQPVTLSDLSKIKNHYNYSISDYTILHYIQPLEHHHHHH”, which protein production is on record?
A: The protein production was “not failed”.

Q: For “MKRSSPVILVSEDEYGKFDESTNSILVKGKMHHLGISRVIEPGDELIVSGKSFIVSDFSPMYFGRVIRRNTQIISEIDASYIIMRCGLRPGMDILEVGVGSGNMSSYILYALNGKGTLTVVERDEDNLKKAMDNLSEFYDIGNVRTSRSDIADFISDQMYDAVIADIPDPWNHVQKIASMMKPGSVATFYLPNFDQSEKTVLSLSASGMHHLETVELMKRRILVREGATRPASDDLTHTAFITFAIKKSGMVYRI”, which protein production is on record?
A: Its protein production is “not failed”.

Q: For “MKRTFKMALIASLAVGGSYVLYGSQNKEELSDLALSNVEALTLGTKDCMYQRNSRCYELVVGPPGEPVIIETSEEANWVNRYTIPE”, which protein production is on record?
A: The protein production was “failed”.

Q: Which protein production does the source give for “MKRTHLASFSNRDKTQEEEGEDGNGDNRVIMNHYKNYEAGLIPWPPKNYTCSFCRREFRSAQALGGHMNVHRRDRAKLRQIPSWLFEPHHHTPIANPNPNFSSSSSSSTTTAHLEPSLTNQRSKTTPFPSARFDLLDSTTSYGGLMMDREKNKSNVCSREIKKSAIDACHSVRCEISRGDLMNKKDDQVMGLELGMSLRNPNQVLDLELRLGYL” here?
A: Its protein production is “not failed”.
